Targets include goat IgG (goat); mouse IgG (mouse); rabbit IgG (rabbit).
Common to all, as to assay: SPR; Biacore 8K; antigen immobilised on CM5 chip by amine coupling at 1 ug/ml (tdTomato) or 5 ug/ml (GST, IgGs) in 10 mM sodium acetate pH 5.5; nanobody injected in single-cycle kinetics at 0.1-10 nM; 20 mM Na-Hepes pH 7.4, 150 mM NaCl, 0.05% Tween 20; Langmuir 1:1 model, RIgG-1 and GIgG-4 fit to a two-step binding model
Holding throughout (set-up): kon of step 1 (2-state binding model) / koff of step 1 (2-state binding model) / koff of step 2 (2-state binding model): unit not given here

B1: LaGIgG-12 (VHH)
VHH: QVQLVESGGGLVQAGGSLRLSCSASGRTLSTYAMGWFRQAPGKEREFVAVISRSGGSTHYVESVKGRFTIVRDNAKNTVYLQMDSLKPEDTAVYYCAVPKYTDYALSPEDFGSWGQGTQVTVS
The molecule B1 gave a Kd in the experiment with goat IgG (goat) of 490 pM.

B2: LaMIgG-9 (VHH)
VHH: QVQLVESGGGLVQAGGSLSLSCATSGRTGDLYAMAWFRQAPGAEREFVATVTAIGGATYYADSVKGRFTISASYARNMVYLQMNSLKPEDSAVYYCAASMKRVWPLHRSDEAEYWGQGTQVTVS
In the experiment with mouse IgG (mouse), B2 came in with a Kd of 600 pM.

B3: LaRIgG-1 (VHH)
VHH: QVQLAESGGGLVQPGGSLRLSCVVSGGTFGRYDMGWFRQAPGKEREFVAAISREVTTNYGDSVRGRFTISRDNAENTVHLLMNSLKPEDTAVYYCAADDAHRYSGTYYLSQDFRYTYWGQGTQVTVS
In the case of B3, in the experiment with rabbit IgG (rabbit), the equilibrium dissociation constant (Kd) amounted to 360 pM, the koff of step 1 (2-state binding model) worked out at 0.0034, the koff of step 2 (2-state binding model) came to 0.00026 and the kon of step 1 (2-state binding model) was 890000. Also, the kon of step 2 (2-state binding model) in the experiment with rabbit IgG (rabbit) stood at 0.0026 s⁻¹.

B4: LaMIgG-5 (VHH)
VHH: DVQLVESGGGSVQAGGSLRLSCAASGFIFSKDVMNWFRQAPGKERELVAFINPSGTTHYVDSVKGRFTISRDNVKSTVYLQMNDLKPDDTAVYYCQTRKFVGTTWRDYWGQGTQVTVS
B4 gave a dissociation constant Kd with mouse IgG (mouse) of 420 pM.

B5: LaRIgG-7 (VHH)
VHH: DVQLVESGGGLVQTGGSLRLSCAASGRTFTTYDLAWFRQAPGKERECVAAVSRIGTTYYPDSVKGRFTISTDTAQNTVYLQMNSLKPEDTAVYYCASAKFGSRWIRAKTSEGNYDDWGRGTQVTVS
In turn, B5 had a dissociation constant Kd with rabbit IgG (rabbit) of 53 pM.

B6: LaRIgG-2 (VHH)
VHH: QVQLVESGGGLVQAGGSLRLSCVASGGTFSDWPKGWFRQAPGKEREFVAAINWNGSGTTYADSVKGRFTISRDNAKNAVYLEMNSLKPEDTAVYSCASTFGGIRSVGTNDYWGRGTQVTVS
With B6, in the experiment with rabbit IgG (rabbit), the Kd was less than 14 pM.

B7: LaGIgG-4 (VHH)
VHH: DVQLVESGGGLVQAGGSLRLSCAASGITFSRSTMGWHRQAPGKRRELVASINAVGSTNYVPSVKGRFTISRDNAKNTVTLQMNSLEPEDTGVYYCVSDPYDDPRRYWGPGTQVTVS
With B7, in the experiment with goat IgG (goat), the dissociation constant (Kd) is 820 pM, the koff of step 1 (2-state binding model) was determined as 0.011, the koff of step 2 (2-state binding model) worked out at 0.00033 and the kon of step 1 (2-state binding model) was determined as 2.2e+06. In addition, the kon of step 2 (2-state binding model) with goat IgG (goat) was determined as 0.0018 s⁻¹.

B8: LaMIgG-8 (VHH)
VHH: QVQLVESGGGLVQAGGSLKLSCATSGFTFSTSVMNWFRQAPGKERDMVAFINPSGSTNYVDSVKGRFTISRDSTKNTVYLQMNSLKPEDTAVYYCQTRLLVDSGWRDYWGQGTQVTVS
On to B8, for which, in the experiment with mouse IgG (mouse), the Kd amounted to 1200 pM.

B9: LaMIgG-14 (VHH)
VHH: QVQLVESGGGLVQAGGSLRLSCAASGFTFSTSVMNWFRQAPGKEREMVAFINPSGSTHYVDSVKGRFTISRDSAKNTVYLQLNSLKPEDTAVYYCQTRLFVGAGWRDYWGQGTQVTVS
Molecule B9 yielded a Kd with mouse IgG (mouse) of 210 pM.

Values taken from article PMC11401214, “A new generation of nanobody research tools using improved mass spectrometry-based discovery methods” (The Journal of Biological Chemistry, 2024).
